According to patent publication US20160200789A1, “IL4 CONJUGATED TO ANTIBODIES AGAINST EXTRACELLULAR MATRIX COMPONENTS” (PHILOGEN S.P.A., priority 2013, published 2016):

Experiments:
[1] = biological target: T1, EDA in the pancreas of diabetic mice (Mus musculus, UniProt P11276); assay: Immunofluorescence staining of pancreas of diabetic mice; conditions: antibodies in SIP format, 2 μg/ml
T1 construct: from tissue; host or cells: pancreas of streptozotocin-treated diabetic C57BL/6J mice (frozen sections)
T1 sequence (P11276 33-2477): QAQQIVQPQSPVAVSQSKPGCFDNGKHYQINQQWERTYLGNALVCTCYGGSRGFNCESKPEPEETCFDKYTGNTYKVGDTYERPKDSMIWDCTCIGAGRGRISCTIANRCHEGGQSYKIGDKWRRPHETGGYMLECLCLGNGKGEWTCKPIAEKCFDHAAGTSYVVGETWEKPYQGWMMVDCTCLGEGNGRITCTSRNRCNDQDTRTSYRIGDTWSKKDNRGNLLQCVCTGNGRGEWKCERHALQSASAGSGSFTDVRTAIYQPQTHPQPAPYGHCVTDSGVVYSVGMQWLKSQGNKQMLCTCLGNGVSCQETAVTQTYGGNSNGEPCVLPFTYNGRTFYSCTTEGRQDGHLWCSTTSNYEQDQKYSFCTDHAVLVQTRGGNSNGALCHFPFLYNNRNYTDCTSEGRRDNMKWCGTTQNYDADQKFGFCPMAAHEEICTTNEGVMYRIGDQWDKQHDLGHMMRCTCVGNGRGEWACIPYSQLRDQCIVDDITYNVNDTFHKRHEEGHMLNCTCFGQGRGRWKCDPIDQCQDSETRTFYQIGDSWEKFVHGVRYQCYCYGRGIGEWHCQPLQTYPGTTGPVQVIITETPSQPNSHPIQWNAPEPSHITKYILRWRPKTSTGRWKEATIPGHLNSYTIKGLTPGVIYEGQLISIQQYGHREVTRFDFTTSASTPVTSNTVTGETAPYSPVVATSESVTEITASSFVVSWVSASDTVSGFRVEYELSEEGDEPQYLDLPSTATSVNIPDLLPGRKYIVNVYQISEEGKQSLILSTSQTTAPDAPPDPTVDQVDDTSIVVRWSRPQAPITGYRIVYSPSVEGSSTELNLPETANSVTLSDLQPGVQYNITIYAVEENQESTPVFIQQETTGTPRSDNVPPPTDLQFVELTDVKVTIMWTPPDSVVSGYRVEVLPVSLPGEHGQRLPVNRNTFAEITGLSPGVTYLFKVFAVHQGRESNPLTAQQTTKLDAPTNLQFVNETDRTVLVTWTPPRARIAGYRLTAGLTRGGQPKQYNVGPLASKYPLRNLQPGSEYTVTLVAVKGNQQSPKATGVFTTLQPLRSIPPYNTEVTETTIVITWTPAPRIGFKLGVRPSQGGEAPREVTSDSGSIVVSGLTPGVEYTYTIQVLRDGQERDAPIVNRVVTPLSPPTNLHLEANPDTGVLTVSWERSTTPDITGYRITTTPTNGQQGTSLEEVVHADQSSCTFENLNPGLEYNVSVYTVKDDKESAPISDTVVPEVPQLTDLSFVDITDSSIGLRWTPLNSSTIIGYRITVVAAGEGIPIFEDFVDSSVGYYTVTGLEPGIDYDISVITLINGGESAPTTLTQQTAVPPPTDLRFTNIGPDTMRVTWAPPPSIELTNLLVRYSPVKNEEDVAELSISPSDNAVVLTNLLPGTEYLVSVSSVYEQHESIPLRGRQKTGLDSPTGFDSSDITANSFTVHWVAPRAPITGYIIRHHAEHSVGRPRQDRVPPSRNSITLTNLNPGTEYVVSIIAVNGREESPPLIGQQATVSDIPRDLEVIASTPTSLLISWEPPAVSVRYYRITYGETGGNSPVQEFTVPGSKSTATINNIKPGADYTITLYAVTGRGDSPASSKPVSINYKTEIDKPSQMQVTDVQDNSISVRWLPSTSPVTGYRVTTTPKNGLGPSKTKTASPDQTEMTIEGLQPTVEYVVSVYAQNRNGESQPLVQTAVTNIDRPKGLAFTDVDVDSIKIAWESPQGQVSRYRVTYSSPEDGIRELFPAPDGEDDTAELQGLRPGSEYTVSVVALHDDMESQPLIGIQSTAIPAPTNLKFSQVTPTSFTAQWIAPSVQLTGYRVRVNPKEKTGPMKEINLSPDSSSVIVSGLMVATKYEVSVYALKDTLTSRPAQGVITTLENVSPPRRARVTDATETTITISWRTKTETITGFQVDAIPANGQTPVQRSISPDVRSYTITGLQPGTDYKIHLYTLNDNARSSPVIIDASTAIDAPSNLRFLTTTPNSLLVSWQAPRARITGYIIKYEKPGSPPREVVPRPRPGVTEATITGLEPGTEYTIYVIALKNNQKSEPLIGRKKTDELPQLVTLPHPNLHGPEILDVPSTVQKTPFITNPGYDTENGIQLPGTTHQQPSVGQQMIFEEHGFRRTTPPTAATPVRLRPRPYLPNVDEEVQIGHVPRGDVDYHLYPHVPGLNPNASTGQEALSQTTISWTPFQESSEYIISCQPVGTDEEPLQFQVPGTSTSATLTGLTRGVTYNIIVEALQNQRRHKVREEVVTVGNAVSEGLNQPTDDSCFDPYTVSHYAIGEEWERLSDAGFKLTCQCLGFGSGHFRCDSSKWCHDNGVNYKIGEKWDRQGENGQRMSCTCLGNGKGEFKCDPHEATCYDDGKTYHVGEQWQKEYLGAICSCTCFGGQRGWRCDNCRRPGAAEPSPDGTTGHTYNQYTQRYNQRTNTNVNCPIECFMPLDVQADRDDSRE
Description: Type 1 diabetes is an autoimmune disease characterized by progressive destruction of pancreatic beta-cells. IL4 has been previously proposed as a potential medicament for preventing diabetes mellitus type 1 (Walz et al. 2002). Six week old C57BL/6J male mice were treated for 5 consecutive days with Streptozotocin (50 mg/kg by intraperitoneal [i.p.] injection). Blood glucose levels were recorded daily and mice were deemed diabetic if their non-fasted blood glucose levels were >300-400 mg/decilitre (dL). Pancreatic tissue was collected from the diabetic mice and snap frozen before cutting and staining. The staining procedure was performed according to the method set out in Pfaffen et al., Eur. J. Nucl. Med. Mol. Imaging (2010). Briefly, purified antibodies in SIP format (2 μg/ml), including antibody F8 (SEQ ID NO: 69), were added onto the sections and detected with a rabbit […] antibody (Dako). A further incubation with the fluorescently labelled goat anti-rabbit IgG Alexa Fluor 488 antibody (Life Technologies) was performed prior to imaging. Blood vessels and cell nuclei were detected using a rat anti-mouse CD31 antibody (BD Bioscience) followed incubation with a donkey anti-rat Alexa 594 antibody (Life Technologies), and DAPI, respectively. The filled white arrows in FIG. 19 indicate CD31^+ blood vessels. […]

[2] = system: imiquimod (IMQ)-induced ear inflammation in C57BL/6 mice; assay: IMQ-induced inflammation model of psoriasis; format: in vivo, mouse; conditions: day 13
Description: C57BL/6 mice (Charles River, Germany) were treated on each side of each ear with 5 mg Aldara cream (containing 0.25 mg Imiquimod). The treatment schedule is illustrated in FIG. 11A. The Aldara cream was applied every day for 5 days (on day 1, 2, 3, 4 5 and […]: each application is illustrated by an asterisk in FIG. 11A). Ear thickness was measured with a caliper before the application of the cream. […] Treatment was repeated on day 9 and 11 (each treatment event is illustrated by an arrow in FIG. 11A).

TNF = biological target: T2, TNF (Homo sapiens, UniProt P01375); assay: Inhibition of TNF-mediated killing of LM fibroblasts; format: cell-based, mouse
T2 construct: host or cells: LM fibroblasts (mouse) as indicator cells
T2 sequence (P01375 77-233 limits assumed, species assumed): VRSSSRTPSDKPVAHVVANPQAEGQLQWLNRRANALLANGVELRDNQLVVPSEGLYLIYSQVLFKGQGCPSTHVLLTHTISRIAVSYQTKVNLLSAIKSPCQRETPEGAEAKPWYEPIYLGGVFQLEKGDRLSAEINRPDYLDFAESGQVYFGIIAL
Text: The murine fusion protein muTNFR-Fc (extracellular part of the murine p75-TNF receptor appended at the N-terminus of a murine IgG1 Fc portion, containing the hinge region) was expressed by stable transfection in CHO cells, according to the supplier's protocol. The fusion protein was purified from the culture supernatant by protein A chromatography, yielding a preparation which was pure in SDS-PAGE analysis and size exclusion chromatography (see FIGS. 2A and B). The biological activity of muTNFR-Fc was tested by inhibition of TNF-mediated killing of LM fibroblasts (see FIG. 2C). TNF inhibitors such as Enbrel™ and Humeira™ represent the standard of care in rheumatoid arthritis patients. muTNFR-Fc is a murine version of a TNF inhibitor for use in mouse models of the disease.

[3] = system: CHS-induced ear inflammation in K14-VEGF-A mice; assay: Contact hypersensitivity-induced ear inflammation in K14-VEGF-A mice; format: in vivo, mouse; conditions: day 15
Text: A delayed-type hypersensitivity reaction was induced in the ear skin of female FVB mice that overexpress VEGF-A in the epidermis under control of the human keratin 14 promoter as previously described (Detmar et al., 1998; Kunstfeld et al., 2004; Xia et al., 2003). Heterozygous VEGF-A transgenic mice with no pre-existing inflammatory lesions were sensitized by topical application of a 2% oxazolone (4-ethoxymethylene-2-phenyl-2-oxazoline-5-one; Sigma) solution in acetone/olive oil (4:1 vol/vol) to the shaved abdomen (50 μl) and each paw (5 μl). Five days after sensitization, the ears were challenged by topical application of 20 μl of a 1% oxazolone solution. Therapy was started on day 7 and repeated at day 9, 11 and 13. […] Ear thickness was measured every other day and at day 15, mice were sacrificed and ear draining lymph nodes were weighted. The timeline for this experiment is illustrated in FIG. 13A. Each treatment event is indicated by an arrow.

Molecule	colocalization of staining with CD31+ blood vessels [1]	ear draining lymph nodes (weight) [2]	inhibition of TNF induced killing of mouse fibroblasts (TNF)	ear draining lymph nodes (weight) [3]
SIP (F8): antibody F8 in SIP format (scFv fused to epsilon-CH4 domain of human IgE) (protein) EVQLLESGGGLVQPGGSLRLSCAASGFTFSLFTMSWVRQAPGKGLEWVSAISGSGGSTYYADSVKGRFTISRDNSKNTLYLQMNSLRAEDTAVYYCAKSTHLYLFDYWGQGTLVTVSSGGGGSGGGGSGGGGEIVLTQSPGTLSLSPGERATLSCRASQSVSMPFLAWYQQKPGQAPRLLIYGASSRATGIPDRFSGSGSGTDFTLTISRLEPEDFAVYYCQQMRGRPPTFGQGTKVEIKSGGSGGPRAAPEVYAFATPEWPGSRDKRTLACLIQNFMPEDISVQWLHNEVQLPDARHSTTQPRKTKGSGFFVFSRLEVTRAEWEQKDEFICRAVHEAASPSQTVQRAVSVNPESSRRGGC	colocalization of EDA and CD31 in the pancreas of diabetic mice			
muTNFR-Fc: extracellular part of the murine p75-TNF receptor appended at the N-terminus of a murine IgG1 Fc portion; murine version of Enbrel (protein) VPAQVVLTPYKPEPGYECQISQEYYDRKAQMCCAKCPPGQYVKHFCNKTSDTVCADCEASMYTQVWNQFRTCLSCSSSCTTDQVEIRACTKQQNRVCACEAGRYCALKTHSGSCRQCMRLSKCGPGFGVASSRAPNGNVLCKACAPGTFSDTTSSTDVCRPHRICSILAIPGNASTDAVCAPESPTLSAIPRTLYVSQPEPTRSQPLDQEPGPSQTPSILTSLGSTPIIEQSTKGGVPRDCGCKPCICTVPEVSSVFIFPPKPKDVLTITLTPKVTCVVVDISKDDPEVQFSWFVDDVEVHTAQTKPREEQFNSTFRSVSELPIMHQDWLNGKEFKCRVNSAAFPAPIEKTISKTKGRPKAPQVYTIPPPKEQMAKDKVSLTCMITDFFPEDITVEWQWNGQPAENYKNTQPIMDTDGSYFVYSKLNVQKSNWEAGNTFTCSVLHEGLHNHHTEKSLSHSPGK		smaller	inhibits TNF induced killing of mouse fibroblasts	smaller
